The text below walks through data of the nanobody polyreactivity screen of Harvey et al. (2022).

This series is described as follows: yeast display, Sf9 membrane polyspecificity reagent, FACS + sequencing; frameworks hold sequencing errors. The procedure, abridged: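 Synthetic nanobody libraries on Saccharomyces cerevisiae BJ5465 were galactose-induced for 36–48 hours, stained 1 hour at 4 °C with 10% biotinylated, detergent-solubilized Sf9 membrane reagent and enriched on streptavidin microbeads. FACS then separated cells into low and high (top ~1%) gates by anti-HA (expression) and streptavidin (reagent binding) fluorescence. Genes were colony-PCR amplified, MiSeq 2 × 250 sequenced and CDR-length filtered. A clone's polyreactivity label is that of its gate of origin.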
As for “QVQLVESGGGLVQAGGSLRLSCAASGRTFGWNAMGWYRQAPGKERELVASIRYSGGTTYYADSVKGRFTISRDNAKNTVYLQMKSLKPEDTAVYYCNSAYYNTGATRPYGYGYWGQGTQVTVSS”, the “polyreactivity (PSR sort gate)” value is on record as “low polyreactivity”. For “QVQLVESGGGLDQAGGSLRLSCAASGITFRYYAMGWYRQAPGKERELVATISRGVRTNYADSVKGRFTISRDNAKNTVYLQMNSLKPEDTAVYYCNADYASARRYDYWGQGTQVTVSS”, the “polyreactivity (PSR sort gate)” value is listed as “high polyreactivity”.

Regarding “QVQLVESGGGLVQAGGSLRLSCAASGYIFYGYAMGWYRQAPWKESEWVAAITVRGGSTYYADSVKGRFTISRDKAKNTVYLQKNSQKPEDTAVYYCAAAPQFTFGVGYWGQVTQVTVSS”, the “polyreactivity (PSR sort gate)” value is “low polyreactivity”. Regarding “QVQLVESGGGLVQAGGSLRLSCVASGNIFVFYLMGWYRQAPGKERELVASISSTGNTYYADSVKGRFTISRDNAKNTVYLQMNSLKPEDTAVYYCAADSHQNVSGWLRWPRMDYWGQGTQVTVSS”, the “polyreactivity (PSR sort gate)” value was “low polyreactivity”. For the sequence “QVQLVESGGGLVQAGGSLRLSSAASGRTFGVNAMGWYRQAPGKERELVASISWGGGSTYYADSVKGRFTISRDNAKNTVYLQMNSLKPEDTAVYFCNRAYVRYVPMNYWGQGTQVTVSS”, the “polyreactivity (PSR sort gate)” value is listed as “high polyreactivity”. In the case of “QVQRVESGGGIVQAGGSLRLSCAASRRIFPYYALGWYRQSPGKERELVAAISQSDGSTYYADSVKGRFTISRDNAKNTVYLQMNSLKPEDTAVYYWAKRQASYTKHRKGRGDYWGQGTQVTVSS”, the “polyreactivity (PSR sort gate)” value is reported as “low polyreactivity”. The value for “QVQLVESGGGLVQAGGSLRLSCAASGYTFVVYAMGWYRQAPGKERELVARISSGGSTFYADSVKGRFTISRDNAKNTVYLQMNSLKPEDTAVYYCAAQWTRYRRRPMDYWGQGTQVTVSS” was “high polyreactivity”. For “QDQLVESGGRLVQAGGSLRLSCAASGITFSRYAMGWYRQAPGKEWELVAAISCSGARTYYADSVKGRFTISRDNAKNTVYLQMNSLKPEDTAVYYCDRFLRNFKTYDYWGQGTQLTVSS”, the “polyreactivity (PSR sort gate)” value is on record as “high polyreactivity”. As for “QVQLVESGGGLVQAGGSLRLSCAASGHNFFYYTMVWYRPAPGKERELVAGITIGGSTNYADSVKGRFTISRDNAKNNVYLVMNSLKPEDTAVYYCNVDKYVYIYSYWEYYYWGQGTQVTVSS”, the “polyreactivity (PSR sort gate)” value is “low polyreactivity”.

With “QVQLVESGGGLVQAGGSLRLSCAASGGTFVTNAMGWYRQAPGKERELVAAISYDGGITYYADSVKGRFTISRDNAKNTVYLQMNSLKPEDTAVYYCAAYRRYRNWFNYWGQGTQVTVSS”, the “polyreactivity (PSR sort gate)” value is given as “high polyreactivity”. For the sequence “QVQLVESGGGLVQAGGSLRLSCAASGFIFNINTMGWYRQAPGKERELVAAISGSGDSTYYADSVKGRFTISRDNAKNTVYLQMNSLKPEDTAVYYCNAGPWWYLHEYDYWGQGTQVTVSS”, the “polyreactivity (PSR sort gate)” value is reported as “low polyreactivity”. As to “QVQLVESGGGLVQAGGSLRLSCAASGYISFGYAMGWYRQAPGKEREFVAAISVGGGTTYYADSVKGRFTISRDNAKNTVYLQMNSLKPEDTAVYYCAARSYSYAPRRGYWGQGTQVTVSS”, the “polyreactivity (PSR sort gate)” value was “high polyreactivity”.

“QVQLVESGGGLVQAGGSLRLSCAASGRILYGYALGWYRQAPGKERELVAAISWSGTRTYDADSVQGRFTISRDNAKNTVYLQMNSLKPEDTAVYYCAARTHVPAEYDYWGQGTQVTVSS”: the “polyreactivity (PSR sort gate)” value is “high polyreactivity”. As for “QVQLVESGGGLVQAGGSLRLSCASSGSTYYVYGMVWYRQAPGKERELVAAISWSGGDTYYADSVKGRFTISRDNAKKTVYFQMNPLKPEDTGVYYCAAVYNYPVVCEYDYWGQGTQVTVSS”, the “polyreactivity (PSR sort gate)” value is “high polyreactivity”. Take “QVQLVESGGGLVQAGGRLRLSCADSGLIIYYYAMGWYRQAPGKEREFVAAITSSGGSTSYADSVKGRFTISRDNAKNTVYLQMNSLKPEDTAVYYCAARSKSEGGYWGQCTQVTVSS”: the “polyreactivity (PSR sort gate)” value is reported as “high polyreactivity”. For “QVQLVESGGGLVQAGGSLRLSCAASGLIFLYYAMGWNRQAPGKERELVAAIRTNYADSVKGRFTISRDNAKNTVYLQMNSLKPEDTPVYYCAAESCQTPTSAFDYWGQGTQVTVSS”, the “polyreactivity (PSR sort gate)” value is “low polyreactivity”.

As to “QVQLVESGGGLVQAGGSLRLSCAASGSTFISNTMGWYRQAPGKERELVAAITRTGGRTYYADSVKGRFTISRDNAKNTVYLQMNSLKPEDTAVYYCARYGGYWSLKYDYWGQGTQVTVSS”, the “polyreactivity (PSR sort gate)” value is listed as “high polyreactivity”. The value for “QVQLVESGGGLVQAGGSLRLSCAASGRIFTINAMGWYRQAPGKERELVAAISWSGVRTYYADSVKGRFTISRDNAKNTVYLQMNSLKPEDTAVYYCAKRRQYQRSYNYWGQGTQVTVSS” was “low polyreactivity”; that for “QVPLVESGGGLVQAGGSLRLSCAASGSIFLLYDMGWYRQAPGKERELVAAITWSGGSTYYADSVKGRFTISRDNAMNSVYLQMNSLKPEDTAVYYCAADEPYPTAYEYWGQGTQVTVSS” was “low polyreactivity”. As for “QVQLQESGGGLVQEGGSLRLSCAASGNISPPADMGWYRQAHGKERELVASIGTGGTTNYADSVKGRFTISRDNAKNSVYLQMNSLKPDDTAVYYCAAVRYEYNPYDYWGQGTQVTVSS”, the “polyreactivity (PSR sort gate)” value is “low polyreactivity”.

As for “QVQLVESGGGLVQAGGSLRLSCAASGLISESYAMGWYRQAPGKERELVAAISSGGSTYYADSVKGRFTISRDNAKNTVYLQMNSLKPEDTAVYYCNATGYKYNYGHAYYYAVDYWGQGTQVTVSS”, the “polyreactivity (PSR sort gate)” value is “low polyreactivity”. For “QVQLVESGGGLVQAGGSLRLSCAASGINFVRNAMGWYRQAPGKERELVAAITGRGVSTYYADSVKGRFTISRDNAKNTVYLQMKSLKPEDTAVYYCAARYSSRGTYPRRYDYWGQGTQVTVSS”, the “polyreactivity (PSR sort gate)” value is on record as “high polyreactivity”. Turning to “QVQLVESGGGLVQAGGSLGLSCAASGSTFRSYAMGWYRQAPGKERELVAAISSAGTTYYADSVKGRFTISRDNAKNTVYLQMNSLKPEDTAVYYCAAKYSYYTYAGDGGLFSWSYGYWGQGTQVTVSS”, the “polyreactivity (PSR sort gate)” value is recorded as “low polyreactivity”. With “QVQLVESGGGLVQAGGSLRLSCAASGSTFGWYAMGWDRQAPGKERELVAAIRNNDGRTYYADSVKGRFTISRDNAKNTVYLQMNSLKPEDTAVDYCNKRLDTVGWYHGYNYWGQGTQVTVSS”, the “polyreactivity (PSR sort gate)” value is listed as “low polyreactivity”. With “QVQLVESGGGLVQAGGSLRLSCAASGSTFRGNAMGWYRPAPGKERELVASITGGGSTNYADSVKGRFTISRDNAKNTVYVPMNSLKPEDTAGYYCAADWGADFYWGQGTQVTVSS”, the “polyreactivity (PSR sort gate)” value is “low polyreactivity”. As to “QVQLVESGGGLVQAGGSLRLSCAASGSIFNANAMGWYRQAPGKERELVARITRGGRTNYADSVKGRFTISLDNAKNSVYLQMNSLKPEDTAVYYCAAVYYVGFPHKYDYWGQGTQVTVSS”, the “polyreactivity (PSR sort gate)” value is listed as “low polyreactivity”. On to “QVHLVESGGGLVQAGGSLRLSCASSGSTFRSYGMGWYRPAPGKERELVAAISSSGGSTYYADSVKGRFTISRDNAKNTVYLQMNSLKPEDSAVYYCAAGSRLVSARLYYWGQGTQVTVSS”, for which the “polyreactivity (PSR sort gate)” value is reported as “high polyreactivity”.

As to “QVQLVESGGGLVQAGGSLRLSCAASGSIFYVYAMGWYRQAPGKERELVAAITWIDGSTYYADSVKGRFTISRDNAKNTVYLQMNSLKPEDTAVYYCAAGGYFYSFYYWGQGTQVTVSS”, the “polyreactivity (PSR sort gate)” value is recorded as “low polyreactivity”. For “QVQLVESGGGVVQAGGSLRLSCAASGSTFLPYAMGWYRQAPGKERELVAAITWRTGSTYYADSVKGRFTSSRDNAQNTVYLQMNSLKPEDTAVYYCNAKQRGKFDYWGQGTQVTVSS”, the “polyreactivity (PSR sort gate)” value is recorded as “low polyreactivity”. With “QVQLVESGGGLVQAGGSLRLSCAASGSTFHSYVMGWYRQAHGKERELVAAITSRGGSTNYADSVKGRFTISRDNAKNTVYLQMNSLKPEDTAVYYCAADGYWGWSYFRYDYWGQGTLVTVSS” the entry was “low polyreactivity”. As for “QVQLVESGGGLVQAGGSLRLSCAASGSIFGYYAMGWYRQAPGKEREFVAAISWSGGRTTYADSVKGRFTISRDNAKNTVYLQMNSLKPEDTAVYYCAAAARRKFYYWGQGTQVTVSS”, the “polyreactivity (PSR sort gate)” value is given as “high polyreactivity”. As to “QVQLVESGAGLVQAGGSLRLSCAASGSIFIHYAMGWYRQARGKERELVAAITGDGNTTYADSVKGRFTISRDNAQNTVNLQINSLKPEDTAVYYCAVTIVDYYWAFDYWGQGTQVTVSS”, the “polyreactivity (PSR sort gate)” value is listed as “low polyreactivity”. On to “QVHLVESGVGLVQAGGSLRLSCASSGSTFYAYAMGWYRQAPGKERELVAAIDSGGSTYYADSVKGRFTISRDNAKNTVYLPMNILKPEDSAVYYCAVRHRYTRAYWGRDYWGQGTKVTVSS”, for which the “polyreactivity (PSR sort gate)” value is listed as “low polyreactivity”. Regarding “QVQLQESGGGLVQAGGSLCLSCAASGTNFFDGHMGWYRQAPGKEREFVAAINPGGSAYYADSLKGRLPLAAITHTVYLQMNSLKPEDTAVYYCAAILFDVYGYYYWGQGTHVTVSS”, the “polyreactivity (PSR sort gate)” value is reported as “low polyreactivity”. In the case of “QVQLVESGGGLVQAGGTLRLSCAASGRTIKQNAMGWYRQAPGKERELVATIRNGGNTNYADSVKGRFTISRDNAKNNVYLQMNSLKPEDTAVYYCAAARSPYKYSYWGQGTQVTVSS”, the “polyreactivity (PSR sort gate)” value is recorded as “high polyreactivity”. On to “QVQLVESGGGLVQAGGSLRLSCAASGSTFYTNAMGWYRQAPGKEREFVAAISGRGSNTYYADSVKGRFTISRDNAKNTVYLQMNSLKPEDTAVYYCAADFRSEHAEDYWGQGTQVTVSS”, for which the “polyreactivity (PSR sort gate)” value is “high polyreactivity”. Take “QVQLVESGGGLVQAGGSLRLSCAASGITFNRYALGWYRQAPGKERELVASIRWSGGSTNYADSVKGRFTISRDNGKNTVYLQMKSLKPEDTAVYYCNAGRESDDVYEGSQRIGQFDYWGQGTQVTVSS”: the “polyreactivity (PSR sort gate)” value is recorded as “low polyreactivity”. The value for “QVQLVESGGGLVQAGGSLRLSCAASGRTFHAYVMGWYRQAPGKERELVADISSGGDTYADSVKGRFTISRDNAKNTVYLQMNSLKPEDTAVYYCAVDLIQDESRYWGQGTQVTVSS” was “low polyreactivity”; that for “QVQLVESGGGLVQAGGSLRLSCAASGRTFSVNAMGWYRQAPGKERELVATITWSGSSTSYADSVKGRFTISRDNAKNSVDLQMNSLTPEDTAVYYCAADLWTLIYLTDTYGDWGQGTQVTVSS” was “low polyreactivity”. Consider “QVQLVESGGGLVQAGGSLRLSCAASGSIYAINVMGWYRQAPGKERDFDAAISVRSGSTYYADSVKGRITISRDNAKNTVYLQMNSLKPEDTAVIYCAARTSRFWRGGGLDYWGQGTQVTGSS”, for which the “polyreactivity (PSR sort gate)” value is given as “high polyreactivity”. Regarding “QVQLVESGGGLVQAGGSLRLSCAASGITFYKYVMGWYRQAPGKERELVAAISSVGSTYYADSVKGRFTISRDNAKNTVYLQMNSLKPEDTAVYYCNARVYYSTTRYYVRVDYWGQGTQVTVSS”, the “polyreactivity (PSR sort gate)” value is given as “high polyreactivity”.
